The supplement of paper PMC11780869

System: Bacillus subtilis
Assay: cleaved RNA product abundance (RNA/gDNA barcode ratio) relative to median wild-type variant (ratio to wild type); higher = more accumulation of the downstream cleavage product
Procedure, shortened: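 Sequencing of barcodes from gel-selected, reverse-transcribed cleaved RNA and from genomic DNA, with UMI collapsing, yielded a per-construct RNA:gDNA ratio. Scaled to the median construct with the unmutated site, this ratio is the cleaved product abundance. The barcoded reporters (truncated aprE or tetM mRNAs with mutagenized RNase Y cleavage-site windows) were integrated into the B. subtilis chromosome, and cultures grew in LB at 37°C from OD600 0.0003 to 0.3.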

[1] = experiment (reporter, strain, medium): exp 2b: truncated aprE reporter, strain BJT200, cleavage site: cggR-gapA (positions -7 to +36 mutated)
[2] = experiment (reporter, strain, medium): exp 4a: truncated aprE reporter, strain BJT201 with 2% xylose (RNase J1 expressed), cleavage site: cggR-gapA (positions -7 to +36 mutated)
[3] = experiment (reporter, strain, medium): exp 6: tetM reporter, strain 168, cleavage site: cggR-gapA (positions -7 to +36 mutated)
[4] = experiment (reporter, strain, medium): exp 8a: truncated aprE reporter, strain BJT201 with 2% xylose (RNase J1 expressed), cleavage site: glnRA (positions -5 to +31 mutated)

| Sequence | cleaved RNA product abundance [2] | cleaved RNA product abundance [4] | also measured |
| --- | --- | --- | --- |
| ACAGACGAAGGAGCCGCAAAGAAGTTATTAAGGGATGAATATTCCCTCAAGATAAATATCTCTCACTTATTTAAA | 0.243 |  | cleaved RNA product abundance [1]: 0.254 |
| ACAGACGAAGGAGCCGCAAAGAAATTATTAAGGGATGAATAATCCCTCAATATAAATATCTCTCACTTATTTAAA | 0.783 |  | cleaved RNA product abundance [1]: 0.826; cleaved RNA product abundance [3]: 0.759 |
| ACAGACGAAGGAGCCGCAAAGAAGTTGTTAAGGGATGAATAATTCCTCAATATAAATATCTCTCACTTATTTAAA | 0.404 |  |  |
| CGACATGTCCCGCTTCTTTCATTACTCCGTTAGCAACTGTTATGCTATATACATTTACCTTTTAAGAGGAGGAAT |  | 0.602 |  |
| CGACATGTCCCGCTTCTTTCATTAATCCATTAGCAACTTTTTTGCTATATACATTTACCTTTTAAGAGGAGGAAT |  | 0.569 |  |
| ACAGACGAAGGAGCCGCAAAGAAGTTATTCAGGAATGAATAATCCCTCAATATAAATATCTCTCACTTATTTAAA | 0.129 |  | cleaved RNA product abundance [1]: 0.132 |
| CGACATGTCCCGCTTCTTTCATTAATCCGTTTGCAACTGTTTTGCTATATACATTGACCTTTTAAGAGGAGGAAT |  | 0.837 |  |
| CGACATGTCCCGCTTCTTTCATTAATCCGTTAACAACTGTTTTTCTATATACATTTACCTTTTAAGAGGAGGAAT |  | 0.258 |  |
| ACAGACGAAGGAGCCGCAAAGAAGTTATTAAGGGATGAATAATCCATTAATATAAATATCTCTCACTTATTTAAA | 0.688 |  | cleaved RNA product abundance [1]: 0.766; cleaved RNA product abundance [3]: 0.984 |
| CGACATGTCCCGCTTCTTTCATTAATCCGTTAGCAACTGTTTTCCTAAATACATTTACCTTTTAAGAGGAGGAAT |  | 0.23 |  |
| ACAGACGAAGGAGCCGCAAAGAAGTTATTAAGGGTTGAATAATCCCTCAATATATATATCTCTCACTTATTTAAA | 0.371 |  |  |
| CGACATGTCCCGCTTCTTTCATTAATCCGTTAGCAACTGTTCTGCTATATACATTTACTTTTTAAGAGGAGGAAT |  | 0.495 |  |
| ACAGACGAAGGAGCCGCAAAGAAGTTATTAAGGTCTGAATAATCCCTCAATATAAATATCTCTCACTTATTTAAA | 0.0753 |  | cleaved RNA product abundance [3]: 0.101 |
| ACAGACGAAGGAGCCGCAAAAAAGTTATTAGGGGATGAATAATCCCTCAATATAAATATCTCTCACTTATTTAAA | 0.608 |  |  |
| CGACATGTCCCGCTTCTTTCATTAATCCGTTAGCAGCTGTTTTGCTATATACATTTACCTTTTAAGAGGAGGAAT |  | 0.754 |  |
| ACAGACGAAGGAGCCGCAAAGAAGTTATTAAGGGATGAATAATCCATCAACATAAATATCTCTCACTTATTTAAA |  |  | cleaved RNA product abundance [1]: 0.164 |
| CGACATGTCCCGCTTCTTTCATTAATCCGTTAGCAACTGTATTGCTATTTACATTTACCTTTTAAGAGGAGGAAT |  | 0.202 |  |
| ACAGACGAAGGAGCCGCAAAGAAGTTCTTAAGGGATGAATAATCCCTAAATATAAATATCTCTCACTTATTTAAA | 0.193 |  | cleaved RNA product abundance [1]: 0.236 |
| CGACATGTCCCGCTTCTTTCATTAATCCGTTAGCAACTTTTTTGCTATATACAATTACCTTTTAAGAGGAGGAAT |  | 1.63 |  |
| ACAGACGAAGGAGCCGCAAAGAAGTTATTTAGGGATGAATAATCGCTCAATATAAATATCTCTCACTTATTTAAA | 0.0995 |  |  |

| Sequence | cleaved RNA product abundance [2] | cleaved RNA product abundance [4] | also measured |
| --- | --- | --- | --- |
| ACAGACGAAGGAGCCGCAAACAAGTTATTAATGGATGAATAATCCCTCAATATAAATATCTCTCACTTATTTAAA | 0.112 |  | cleaved RNA product abundance [1]: 0.0836 |
| ACAGACGAAGGAGCCGCAAAGAAGTGATTACGGGATGAATAATCCCTCAATATAAATATCTCTCACTTATTTAAA | 0.396 |  |  |
| ACAGACGAAGGAGCCGCAAAGAAGTTATGAAGGGATGAATAATCCGTCAATATAAATATCTCTCACTTATTTAAA | 0.222 |  |  |
| ACAGACGAAGGAGCCGCAAAGAAGTTATTAAAGGATGAATAATACCTCAATATAAATATCTCTCACTTATTTAAA | 0.121 |  | cleaved RNA product abundance [1]: 0.0942; cleaved RNA product abundance [3]: 0.108 |
| CGACATGTCCCGCTTCTTTCATTAATTCGTTAGCAACTGTTTTGCCATATACATTTACCTTTTAAGAGGAGGAAT |  | 0.237 |  |
| ACAGACGAAGGAGCCGCAAAGAAGTTATTAAGGGATGAATAATCCCTCAATATAAAAATTTCTCACTTATTTAAA | 0.688 |  |  |
| CGACATGTCCCGCTTCTTTCATTATTCCGTTATCAACTGTTTTGCTATACACATTTACCTTTTAAGAGGAGGAAT |  | 0.188 |  |
| ACAGACGAAGGAGCCGCAAAGAAGTGATTAAGGGATGAATAATCCCACAATATAAATATCTCTCACTTATTTAAA | 0.226 |  |  |
| CGACATGTCCCGCTTCTTTCATTAATCCGATAGCAACTGTTTTGCTATATACATTGACCTTTTAAGAGGAGGAAT |  | 0.721 |  |
| ACAGACGAAGGAGCCGCAAAGAAGTTATTACGGGATGAATGATCCCTCAATATAAATATCTCTCACTTATTTAAA | 0.247 |  |  |
| ACAGACGAAGGAGCCGCAAAGAAGTTACTAAGGCATGAATAATCCCTCAATATAAATATCTCTCACTTATTTAAA | 0.112 |  |  |
| CGACATGTCCCGCTTCTTTCATTAATCAGTTACCAACTGTTTTGCTATATACATTTACCTTTTAAGAGGAGGAAT |  | 0.267 |  |
| ACAGACGAAGGAGCCGCAAAGAAGTTATTAAGGGATAAATAATCTCTCAATATAAATATCTCTCACTTATTTAAA | 0.355 |  |  |
| ACAGACGAAGGAGCCGCAAAGAAGTTATTAAGGGATGAATAATCTATCAATATAAATATCTCTCACTTATTTAAA | 0.135 |  |  |
| ACAGACGAAGGAGCCGCGAAGAAGTGATTAAGGGATGAATAATCCCTCAATATAAATATCTCTCACTTATTTAAA | 0.347 |  |  |
| ACAGACGAAGGAGCCGCAAAGATGTTATTAAGGAATGAATAATCCCTCAATATAAATATCTCTCACTTATTTAAA | 0.145 |  | cleaved RNA product abundance [1]: 0.102 |
| CGACATGTCCCGCTTCTTTCATTAATCCGTTAGCAACTGTTTGGCTATATACATTTAACTTTTAAGAGGAGGAAT |  | 0.488 |  |
| ACAGACGAAGGAGCCGCAAAGAAGTTATTAAGGGATTAATAATACCTCAATATAAATATCTCTCACTTATTTAAA | 0.187 |  | cleaved RNA product abundance [1]: 0.139 |
| ACAGACGAAGGAGCCGCAAAGAAGTTATTAAGGGATGAACAATCCCTCAACATAAATATCTCTCACTTATTTAAA | 0.265 |  |  |
| CGACATGTCCCGCTTCTTTCATTAATCAGTTGGCAACTGTTTTGCTATATACATTTACCTTTTAAGAGGAGGAAT |  | 0.497 |  |

| Sequence | cleaved RNA product abundance [2] | cleaved RNA product abundance [4] | also measured |
| --- | --- | --- | --- |
| ACAGACGAAGGAGCCGCAAAGAAGTTATTAAGAGATGAATAACCCCTCAATATAAATATCTCTCACTTATTTAAA | 0.147 |  |  |
| ACAGACGAAGGAGCCGCAACGAAGTTATTAAGGGATGAATAATCTCTCAATATAAATATCTCTCACTTATTTAAA | 0.684 |  |  |
| CGACATGTCCCGCTTCTTTCATTAATCCGTTAGCAACTATTTTGCTATATACGTTTACCTTTTAAGAGGAGGAAT |  | 0.197 |  |
| CGACATGTCCCGCTTCTTTCATTAATCCGTTAGCATCTGTTTTCCTATATACATTTACCTTTTAAGAGGAGGAAT |  | 0.524 |  |
| ACAGACGAAGGAGCCGCAAAGAAGTTATTAAGGGATGAATTATACCTCAATATAAATATCTCTCACTTATTTAAA | 0.162 |  | cleaved RNA product abundance [1]: 0.139 |
| CGACATGTCCCGCTTCTTTCATTAATCCGTTAGCAAGTGTTTTGCTATATACATTTACTTTTTAAGAGGAGGAAT |  | 1.39 |  |
| ACAGACGAAGGAGCCGCAAAGAAGTTATTAAGGTATGAATTATCCCTCAATATAAATATCTCTCACTTATTTAAA |  |  | cleaved RNA product abundance [1]: 0.15 |
| CGACATGTCCCGCTTCTTTCATTAGTCCGTTAGCAACTGTTTTCCTATATACATTTACCTTTTAAGAGGAGGAAT |  | 0.352 |  |
| ACAGACGAAGGAGCCGCACAGAAGTCATTAAGGGATGAATAATCCCTCAATATAAATATCTCTCACTTATTTAAA | 0.43 |  |  |
| ACAGACGAAGGAGCCGCAAAGAAGTTATTAAGGGATGAAAAATCCCTCAATATAAACATCTCTCACTTATTTAAA | 0.772 |  |  |
| ACAGACGAAGGAGCCGCAAAGAAGATATTAAGGGAAGAATAATCCCTCAATATAAATATCTCTCACTTATTTAAA | 1 |  |  |
| ACAGACGAAGGAGCCGCAACAAGTTATTAAGGGATGAATAATCCCTCAATATAAATATCTCTCACTTATTTAAAG | 0.581 |  |  |
| ACAGACGAAGGAGCCGCAAAGAAGTTATTAAGAGATGAATAATCCCGCAATATAAATATCTCTCACTTATTTAAA | 0.154 |  |  |
| ACAGACGAAGGAGCCGCAAAGTAATTATTAAGGGATGAATAATCCCTCAATATAAATATCTCTCACTTATTTAAA | 0.645 |  |  |
| ACAGACGAAGGAGCCGCAAAGAAGTTATTAAGGGATGAATAATCCTTCAATATGAATATCTCTCACTTATTTAAA | 0.18 |  |  |
| ACAGACGAAGGAGCCGCAAATAAGTTATTAGGGGATGAATAATCCCTCAATATAAATATCTCTCACTTATTTAAA |  |  | cleaved RNA product abundance [1]: 0.603 |
| ACAGACGAAGGAGCCGCAAAGAAGTTATTAAGGGATGAATACTCCCTCAATATAAATATCTCTCACTTATTTAAA | 0.732 |  | cleaved RNA product abundance [1]: 0.565; cleaved RNA product abundance [3]: 0.566 |
| ACAGACGAAGGAGCCGCAAAGAAGTTATTAAGAGATGAATAATCCCTAAATATAAATATCTCTCACTTATTTAAA | 0.158 |  | cleaved RNA product abundance [1]: 0.141; cleaved RNA product abundance [3]: 0.179 |
| CGACATGTCCCGCTTCTTTCATTAATCCGTTAGCAACTGTTTTGCTAAATACATTTGCCTTTTAAGAGGAGGAAT |  | 0.22 |  |
| CGACATGTCCCGCTTCTTTCATTAATCCGATAGCAACTGTTTTGATATATACATTTACCTTTTAAGAGGAGGAAT |  | 0.325 |  |
